# Measurements from the Immune Epitope Database (IEDB).
# pKd: −log10 of the molar value.
# Columns and labels:
# Assay in all cases: IEDB peptide-MHC binding, purified MHC/competitive/radioactivity; filed as Kd, often an IC50 or EC50 that approximates it; ≥ and ≤ were set here for values at or beyond the usual limits of such assays
# [1] = biological target: HLA-A*31:01
# [2] = biological target: HLA-A*03:01
# [3] = biological target: HLA-A*33:01
# [4] = biological target: HLA-A*11:01
# [5] = biological target: HLA-A*68:01
# [6] = source organism: Vaccinia virus WR
# [7] = source organism: Mammarenavirus guanaritoense
# [8] = source organism: Vaccinia virus Copenhagen
# [9] = source organism: SARS coronavirus Tor2
Sequence,"pKd [1, 6]","pKd [2, 6]","pKd [3, 6]","pKd [4, 6]","pKd [5, 6]",also measured
LIKFISDNKK,7.37,6.85,≤ 5.00,6.00,7.33,–
SFSNTIQSY,≤ 4.11,4.93,≤ 4.11,5.37,4.98,–
SIVLHIQLEH,–,–,–,–,–,"pKd [1, 7]: 4.93; pKd [2, 7]: 5.84; pKd [3, 7]: 5.09; pKd [4, 7]: 5.97; pKd [5, 7]: ≤ 4.66"
PTFQLLNMIK,4.90,5.04,≤ 4.15,7.03,≤ 5.00,–
EQQQSFMPK,5.28,5.67,5.26,7.95,6.88,–
LTILDDNLY,≤ 4.50,4.95,≤ 4.16,5.49,6.42,–
NTIVFGIYK,–,–,–,–,–,"pKd [1, 8]: ≤ 4.48; pKd [2, 8]: ≤ 4.54; pKd [3, 8]: ≤ 4.11; pKd [4, 8]: 5.97; pKd [5, 8]: 5.95"
SQIFNIISY,6.04,6.17,6.00,7.27,6.80,–
MVDELVTRK,5.40,7.16,5.69,6.79,6.10,–
EVGSIRCVKY,≤ 4.33,≤ 4.15,≤ 4.32,≤ 4.16,5.82,–
KTVQFCDAMR,–,–,–,–,–,"pKd [1, 9]: 8.06; pKd [2, 9]: 5.75; pKd [3, 9]: 5.82; pKd [4, 9]: 6.57; pKd [5, 9]: 7.05"
STYSDICSK,7.10,7.63,6.01,9.15,8.69,–
SSVQLSNNKY,5.54,5.33,5.00,6.85,7.18,–
VFAYVGCYNK,–,–,–,–,–,"pKd [1, 9]: 6.74; pKd [2, 9]: 5.82; pKd [3, 9]: 6.47; pKd [4, 9]: 6.46; pKd [5, 9]: 7.19"
AVLDMCAALK,–,–,–,–,–,"pKd [1, 9]: 7.09; pKd [2, 9]: 7.89; pKd [3, 9]: 6.12; pKd [4, 9]: 8.22; pKd [5, 9]: 6.93"
ILKKLSSIK,5.50,8.33,5.81,5.96,5.32,–
IQTSVNTVVR,6.44,≤ 4.40,≤ 4.52,4.85,5.84,–
LVLLILMTAR,–,–,–,–,–,"pKd [1, 9]: 6.04; pKd [2, 9]: 5.42; pKd [3, 9]: 5.26; pKd [4, 9]: 5.06; pKd [5, 9]: 5.17"
GANYLGKPK,–,–,–,–,–,"pKd [1, 9]: 5.83; pKd [2, 9]: 6.29; pKd [3, 9]: ≤ 4.11; pKd [4, 9]: 5.97; pKd [5, 9]: 5.46"
ITTDDLVKSY,≤ 4.15,≤ 4.15,≤ 4.15,4.96,5.99,–
NILGGVLHTK,5.74,7.41,5.86,7.43,7.70,–
DSFLRKIGDK,5.45,≤ 4.23,5.71,4.93,5.20,–
NMRDLIVTFR,8.94,4.98,9.25,4.83,7.94,–
TLQGPPGTGK,–,–,–,–,–,"pKd [1, 9]: 5.48; pKd [2, 9]: 6.55; pKd [3, 9]: 5.09; pKd [4, 9]: 6.58; pKd [5, 9]: 6.65"
MTLVPVLEK,7.01,7.60,5.88,8.18,8.24,–
KIVNGVLSR,5.85,6.48,5.15,7.05,5.69,–
SMDVLAEKKY,4.77,≤ 4.55,≤ 4.53,≤ 5.00,5.58,–
LLRHYYNKR,8.77,5.52,7.29,6.08,5.60,–
YLSTFNMWR,7.19,6.70,7.02,6.18,8.47,–
KFVFPLNSK,–,–,–,–,–,"pKd [1, 9]: 7.13; pKd [2, 9]: 6.77; pKd [3, 9]: ≤ 4.27; pKd [4, 9]: 5.90; pKd [5, 9]: 5.06"
